According to the supplement of paper PMC7877785:
± gives the uncertainty stated by the source.

Assay: self-splicing fitness, log relative to wild type (ln ratio); higher = more splicing; Tetrahymena group I intron in knt gene, E. coli kanamycin selection, DiMSum; sequences stand for … in CUCUCU…GGAGGGAAAAGUUAUCAGGCAUGCACCUGGUAGCUAGUCUUUAAACCAAUAGAUUGCAUCGGUUUAAAAGGCAAGACCGUCAAAUUGCGGGAAAGGGGUCAACAGCCGUUCAGUACCAAGUCUCAGGGGAAACUUUGAGAUGGCCUUGCAAAGGGUAUGGUAAUAAGCUGACGGACAUGGUCCUAACCACGCAGCCAAGUCCUAAGUCAACAGAUCUUCUGUUGAUAUGGAUGCAGUUCACAGACUAAAUGUCGGUCGGGGAAGAUGUAUUCUUCUCAUAAGAUAUAGUCGGACCUCUCCUUAAUGGGAGCUAGCGGAUGAAGUGAUGCAACACUGGAGCCGCUGGGAACUAAUUUGUAUGCGAAAGUAUAUUGAUUAGUUUUGGAGUACUCGUGGUCG
How it was run: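 Pooled colonies went to amplicon sequencing on an Illumina HiSeq 2500 after six replicate transformations. The plates were LB agar with 100 μg/mL carbenicillin, 50 μM IPTG and 0.2% rhamnose, with or without 25 μg/mL kanamycin, incubated overnight at 37°C or 30°C. The E. coli BL21(DE3) library had all eight P1ex-region intron nucleotides randomised, the intron placed in the knt kanamycin-resistance gene on pET-22b(+). DiMSum fitness is the error-weighted combination of replicate fold changes, kanamycin against none, normalised to wild type.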

| Sequence | self-splicing fitness (ln) (30 °C) | self-splicing fitness (ln) (37 °C) |
| --- | --- | --- |
| AGUUAGCAAUAUUACGACCU | -0.34 ± 0.09 | -0.469 ± 0.097 |
| AAGGAGCAAUAUUACGACUA | -1.51 ± 0.17 | -0.705 ± 0.27 |
| UAAAAGCAAUAUUACGCUUA | -1.53 ± 0.11 | -1.03 ± 0.12 |
| GAAAAGCAAUAUUACGUUGC | -3.83 ± 0.15 | -2.67 ± 0.14 |
| UAUUAGCAAUAUUACGCAGC | -3.88 ± 0.24 | -2.56 ± 0.31 |
| CAUUAGCAAUAUUACGUAUC | -3.14 ± 0.31 | -2.26 ± 0.28 |
| AGAAAGCAAUAUUACGAAGG | -3.59 ± 0.25 | -1.74 ± 0.2 |
| AUCCAGCAAUAUUACGAAUA | -1.44 ± 0.13 | -0.957 ± 0.13 |
| GAAGAGCAAUAUUACGGUAU | -3.7 ± 0.23 | -2.46 ± 0.31 |
| AACGAGCAAUAUUACGAAAC |  | -2.37 ± 0.22 |
| GCAUAGCAAUAUUACGGACA | -1.74 ± 0.15 | -0.572 ± 0.14 |
| AAAGAGCAAUAUUACGCGUC | -2.18 ± 0.2 | -2.6 ± 0.21 |
| CGCCAGCAAUAUUACGCCUC | -3.25 ± 0.32 | -0.661 ± 0.29 |
| ACUGAGCAAUAUUACGCGAA | -3.01 ± 0.33 | -2.77 ± 0.36 |
| UCUUAGCAAUAUUACGCCCA |  | -0.128 ± 0.47 |
| CUAUAGCAAUAUUACGUAAA | -3.63 ± 0.24 |  |
| CAGUAGCAAUAUUACGAGCU | -3.07 ± 0.28 | 0.322 ± 0.19 |
| AGGGAGCAAUAUUACGGCUU | -3.29 ± 0.25 | -1.11 ± 0.35 |
| UAUAAGCAAUAUUACGGAAG | -2.72 ± 0.18 | -2.05 ± 0.18 |
| AGGCAGCAAUAUUACGCUAU | -1.45 ± 0.088 | -0.464 ± 0.092 |
| CCUUAGCAAUAUUACGUCGC | -3.07 ± 0.4 | -2.66 ± 0.38 |
| UUGGAGCAAUAUUACGAUAA | -2.08 ± 0.26 | 0.881 ± 0.28 |
| UGUGAGCAAUAUUACGUACC | -1.1 ± 0.23 | -0.269 ± 0.28 |
| GGGAAGCAAUAUUACGACGU | -0.169 ± 0.15 | 0.767 ± 0.17 |
| AGGCAGCAAUAUUACGCGCG | -0.446 ± 0.12 | -0.358 ± 0.14 |

| Sequence | self-splicing fitness (ln) (30 °C) | self-splicing fitness (ln) (37 °C) |
| --- | --- | --- |
| GAAGAGCAAUAUUACGUCUG | -2.34 ± 0.14 | -1.76 ± 0.16 |
| AACUAGCAAUAUUACGUUGA | -1.52 ± 0.11 | -1.04 ± 0.12 |
| CUCUAGCAAUAUUACGCUAU | -3.8 ± 0.39 | -2.79 ± 0.3 |
| AAGGAGCAAUAUUACGGGAC | -2.34 ± 0.23 | -2.36 ± 0.41 |
| CAGGAGCAAUAUUACGACAA |  | -1.73 ± 0.41 |
| GAACAGCAAUAUUACGUAAU | -0.976 ± 0.065 | -0.107 ± 0.09 |
| ACGAAGCAAUAUUACGUAUC | -4.38 ± 0.27 | -2.66 ± 0.22 |
| UGGUAGCAAUAUUACGUGGA | -2.71 ± 0.26 | -1.98 ± 0.16 |
| GAAGAGCAAUAUUACGCGCC | -3.56 ± 0.47 | -1.43 ± 0.26 |
| CCAGAGCAAUAUUACGUUUG | -2.32 ± 0.11 | -2.25 ± 0.17 |
| CCUGAGCAAUAUUACGCUGA | -2.59 ± 0.31 | -2.56 ± 0.35 |
| GGGCAGCAAUAUUACGUUGU | -2.7 ± 0.16 | -2.77 ± 0.19 |
| CACGAGCAAUAUUACGCCAG | -3.4 ± 0.27 | -2.95 ± 0.28 |
| GUCCAGCAAUAUUACGGACA | -2.84 ± 0.26 | -1.67 ± 0.18 |
| CUACAGCAAUAUUACGAUCC | -4.14 ± 0.36 | -1.44 ± 0.26 |
| UGAAAGCAAUAUUACGCAGC |  | -1.62 ± 0.22 |
| UAUAAGCAAUAUUACGAGGG | -3.42 ± 0.3 |  |
| CGAGAGCAAUAUUACGAGGG | -4.22 ± 0.31 | -3.16 ± 0.27 |
| GCAUAGCAAUAUUACGCCGC |  | -1.28 ± 0.27 |
| UACGAGCAAUAUUACGAUCG | -0.594 ± 0.1 | -0.663 ± 0.13 |
| CACGAGCAAUAUUACGCUUC | -3.96 ± 0.24 | -3.25 ± 0.3 |
| UGCUAGCAAUAUUACGCAAA |  | -0.861 ± 0.16 |
| CGAUAGCAAUAUUACGAUCA | -0.106 ± 0.06 | 0.441 ± 0.087 |
| CUGCAGCAAUAUUACGGUGG | -3.9 ± 0.19 | -3.09 ± 0.24 |
| GAUAAGCAAUAUUACGCCGU | -0.976 ± 0.15 | -0.545 ± 0.17 |

| Sequence | self-splicing fitness (ln) (30 °C) | self-splicing fitness (ln) (37 °C) |
| --- | --- | --- |
| GACCAGCAAUAUUACGUCCC | -0.756 ± 0.12 | -0.522 ± 0.13 |
| GUCUAGCAAUAUUACGCCGU | -0.884 ± 0.23 | -0.0862 ± 0.26 |
| CAAAAGCAAUAUUACGUCCA | -1.7 ± 0.18 | -2.05 ± 0.16 |
| ACUGAGCAAUAUUACGUGCC | -2.31 ± 0.23 |  |
| CGUCAGCAAUAUUACGGAUU | -1.35 ± 0.1 | -0.245 ± 0.1 |
| ACGCAGCAAUAUUACGUACA | -2.03 ± 0.11 | -0.547 ± 0.12 |
| GUUCAGCAAUAUUACGCCGA | -2.43 ± 0.31 | -1.34 ± 0.29 |
| UGUUAGCAAUAUUACGCUGG | -3.77 ± 0.24 | 0.0911 ± 0.15 |
| UUCUAGCAAUAUUACGUAUG | -3 ± 0.17 | -1.8 ± 0.17 |
| UAGGAGCAAUAUUACGGGAU | -3.21 ± 0.35 | -2.27 ± 0.37 |
| AUACAGCAAUAUUACGAGUU | -2.65 ± 0.14 | -0.493 ± 0.1 |
| AUGAAGCAAUAUUACGGAAU | -0.972 ± 0.074 | -0.789 ± 0.091 |
| CUUAAGCAAUAUUACGUACC | -2.7 ± 0.35 | -0.17 ± 0.47 |
| UUAGAGCAAUAUUACGAGCG | -0.362 ± 0.17 | -0.824 ± 0.25 |
| UCUGAGCAAUAUUACGCAGG | -2.76 ± 0.32 | -1.29 ± 0.21 |
| GUGCAGCAAUAUUACGAAUG | -2.95 ± 0.16 | -2.01 ± 0.19 |
| UCUGAGCAAUAUUACGGGAA |  | -1.82 ± 0.33 |
| AACAAGCAAUAUUACGGACA | -1.6 ± 0.094 | 0.312 ± 0.095 |
| UAUUAGCAAUAUUACGACUG | -0.225 ± 0.16 | 0.804 ± 0.21 |
| GCGGAGCAAUAUUACGCGGU | -1.68 ± 0.44 |  |
| CAAUAGCAAUAUUACGCACG | -1.01 ± 0.19 | -1.12 ± 0.17 |
| AUUCAGCAAUAUUACGUUCU | -0.926 ± 0.074 | -0.163 ± 0.1 |
| UUAGAGCAAUAUUACGCGGG | -1.91 ± 0.13 | -0.56 ± 0.13 |
| GGUUAGCAAUAUUACGUCCA | -1.17 ± 0.3 | -0.199 ± 0.34 |
| UGUAAGCAAUAUUACGGCGU | -0.483 ± 0.1 | -0.397 ± 0.12 |

| Sequence | self-splicing fitness (ln) (30 °C) | self-splicing fitness (ln) (37 °C) |
| --- | --- | --- |
| UGGCAGCAAUAUUACGCUAA | -0.652 ± 0.06 | 0.116 ± 0.069 |
| AUCCAGCAAUAUUACGCAUU | -1.37 ± 0.064 | -0.265 ± 0.082 |
| AAGUAGCAAUAUUACGCUGC |  | -0.747 ± 0.19 |
| GGGCAGCAAUAUUACGGUGC | -2.21 ± 0.13 | -1.8 ± 0.089 |
| CCUCAGCAAUAUUACGCAAC | -2.21 ± 0.3 | -1.83 ± 0.4 |
| AAUGAGCAAUAUUACGGCGA | -2.77 ± 0.34 | -0.446 ± 0.19 |
| GACAAGCAAUAUUACGAAAU | -2.47 ± 0.14 | -0.766 ± 0.14 |
| GUGCAGCAAUAUUACGUUCU | -1.1 ± 0.1 | 0.673 ± 0.097 |
| UCUGAGCAAUAUUACGUACU | -2.66 ± 0.34 | -2.72 ± 0.48 |
| CUCGAGCAAUAUUACGUUGC | -3.84 ± 0.42 | -3.45 ± 0.37 |
| AACUAGCAAUAUUACGCUAA | -2.06 ± 0.11 | -1.51 ± 0.12 |
| CCGGAGCAAUAUUACGUUAU | -2.97 ± 0.31 | -2.01 ± 0.23 |
| CUAUAGCAAUAUUACGUGGC | -2.86 ± 0.24 | -1.8 ± 0.28 |
| CAUGAGCAAUAUUACGUUUU | -3.66 ± 0.21 | -2.86 ± 0.24 |
| CACGAGCAAUAUUACGAGCC | -3.12 ± 0.31 | -3.55 ± 0.47 |
| UCAAAGCAAUAUUACGACGG | -0.0455 ± 0.082 | 0.125 ± 0.12 |
| AUCAAGCAAUAUUACGAAUU | -3.12 ± 0.14 | -1.21 ± 0.14 |
| ACAUAGCAAUAUUACGGGAG | -2.13 ± 0.11 | -1.52 ± 0.11 |
| GUUAAGCAAUAUUACGCUUC |  | -1.01 ± 0.49 |
| AUACAGCAAUAUUACGUGCU | -3.03 ± 0.15 | -1.18 ± 0.12 |
| AUGCAGCAAUAUUACGUGAU | -1.76 ± 0.067 | -0.91 ± 0.08 |
| CCCCAGCAAUAUUACGAGAC | -3.9 ± 0.18 | -2.37 ± 0.21 |
| CGCUAGCAAUAUUACGGUAU | -3.03 ± 0.15 | -2.39 ± 0.19 |
| GCAGAGCAAUAUUACGAUGC | -4.01 ± 0.32 | -1.99 ± 0.18 |
